# Patent US20130011378A1, “Stable formulations of a hyaluronan-degrading enzyme” (priority 2011, published 2013)
# Assays:
# [1] = RP-HPLC: insulin apparent solubility / percent recovery; details: 7 days at 2-8° C.
# Outline: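 Vial samples withdrawn at each time point, centrifuged, held at 4 °C, run in duplicate by RP-HPLC. Apparent solubility = combined insulin main and desamido peak areas as percent versus standards/initial formulation; purity = main insulin peak as percent of all insulin species.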
# [2] = cited from earlier work
substance,measurement,setting,value
"regular insulin: mature human insulin, SEQ ID NOS: 103 and 104","Solubility of regular Insulin, % remaining of the original concentration","[1]; 0.2% methylparaben + […] m-cresol, pH 6.6, NaCl 50 mM",15.3%
same,"Solubility of regular Insulin, % remaining of the original concentration","[1]; 0.2% methylparaben + […] m-cresol, pH 6.6, NaCl 80 mM",9.0%
same,"Solubility of regular Insulin, % remaining of the original concentration","[1]; 0.2% methylparaben + […] m-cresol, pH 6.6, NaCl 140 mM",5.8%
same,"Solubility of regular Insulin, % remaining of the original concentration","[1]; 0.2% methylparaben + […] m-cresol, pH 6.8, NaCl 50 mM",34.1%
same,"Solubility of regular Insulin, % remaining of the original concentration","[1]; 0.2% methylparaben + […] m-cresol, pH 6.8, NaCl 110 mM",11.4%
same,"Solubility of regular Insulin, % remaining of the original concentration","[1]; 0.2% methylparaben + […] m-cresol, pH 7.0, NaCl 50 mM",86.9%
same,"Solubility of regular Insulin, % remaining of the original concentration","[1]; 0.2% methylparaben + […] m-cresol, pH 7.0, NaCl 80 mM",46.6%
same,"Solubility of regular Insulin, % remaining of the original concentration","[1]; 0.2% methylparaben + […] m-cresol, pH 7.0, NaCl 140 mM",15.9%
same,"Solubility of regular Insulin, % remaining of the original concentration","[1]; 0.2% methylparaben + […] m-cresol, pH 7.2, NaCl 80 mM",90.6%
same,"Solubility of regular Insulin, % remaining of the original concentration","[1]; 0.2% methylparaben + […] m-cresol, pH 7.2, NaCl 110 mM",47.1%
same,"Solubility of regular Insulin, % remaining of the original concentration","[1]; 0.2% methylparaben + […] m-cresol, pH 7.2, NaCl 140 mM",32.9%
same,"Solubility of regular Insulin, % remaining of the original concentration","[1]; 0.2% methylparaben + […] m-cresol, pH 7.4, NaCl 50 mM",98.1%
same,"Solubility of regular Insulin, % remaining of the original concentration","[1]; 0.2% methylparaben + […] m-cresol, pH 7.4, NaCl 80 mM",97.7%
same,"Solubility of regular Insulin, % remaining of the original concentration","[1]; 0.2% methylparaben + […] m-cresol, pH 7.4, NaCl 110 mM",94.6%
same,"Solubility of regular Insulin, % remaining of the original concentration","[1]; 0.2% methylparaben + […] m-cresol, pH 7.4, NaCl 140 mM",59.1%
same,"Solubility of regular Insulin, % remaining of the original concentration","[1]; 0.2% methylparaben + […] m-cresol, pH 7.6, NaCl 50 mM",98.1%
same,"Solubility of regular Insulin, % remaining of the original concentration","[1]; 0.2% methylparaben + […] m-cresol, pH 7.6, NaCl 80 mM",97.9%
same,"Solubility of regular Insulin, % remaining of the original concentration","[1]; 0.2% methylparaben + […] m-cresol, pH 7.6, NaCl 140 mM",95.4%
same,"Solubility of regular Insulin, % remaining of the original concentration","[1]; 0.2% phenol + […] m-cresol, pH 6.6, NaCl 50 mM",26.8%
same,"Solubility of regular Insulin, % remaining of the original concentration","[1]; 0.2% phenol + […] m-cresol, pH 6.6, NaCl 80 mM",8.7%
same,"Solubility of regular Insulin, % remaining of the original concentration","[1]; 0.2% phenol + […] m-cresol, pH 6.6, NaCl 110 mM",6.5%
same,"Solubility of regular Insulin, % remaining of the original concentration","[1]; 0.2% phenol + […] m-cresol, pH 6.6, NaCl 140 mM",5.8%
same,"Solubility of regular Insulin, % remaining of the original concentration","[1]; 0.2% phenol + […] m-cresol, pH 6.8, NaCl 50 mM",38.4%
same,"Solubility of regular Insulin, % remaining of the original concentration","[1]; 0.2% phenol + […] m-cresol, pH 6.8, NaCl 80 mM",17.1%
same,"Solubility of regular Insulin, % remaining of the original concentration","[1]; 0.2% phenol + […] m-cresol, pH 6.8, NaCl 140 mM",6.5%
same,"Solubility of regular Insulin, % remaining of the original concentration","[1]; 0.2% phenol + […] m-cresol, pH 7.0, NaCl 50 mM",100.3%
same,"Solubility of regular Insulin, % remaining of the original concentration","[1]; 0.2% phenol + […] m-cresol, pH 7.0, NaCl 80 mM",35.7%
same,"Solubility of regular Insulin, % remaining of the original concentration","[1]; 0.2% phenol + […] m-cresol, pH 7.0, NaCl 110 mM",17.7%
same,"Solubility of regular Insulin, % remaining of the original concentration","[1]; 0.2% phenol + […] m-cresol, pH 7.0, NaCl 140 mM",11.6%
same,"Solubility of regular Insulin, % remaining of the original concentration","[1]; 0.2% phenol + […] m-cresol, pH 7.2, NaCl 80 mM",92.2%
same,"Solubility of regular Insulin, % remaining of the original concentration","[1]; 0.2% phenol + […] m-cresol, pH 7.2, NaCl 110 mM",37.4%
same,"Solubility of regular Insulin, % remaining of the original concentration","[1]; 0.2% phenol + […] m-cresol, pH 7.2, NaCl 140 mM",18.9%
same,"Solubility of regular Insulin, % remaining of the original concentration","[1]; 0.2% phenol + […] m-cresol, pH 7.4, NaCl 80 mM",99.2%
same,"Solubility of regular Insulin, % remaining of the original concentration","[1]; 0.2% phenol + […] m-cresol, pH 7.4, NaCl 110 mM",87.8%
same,"Solubility of regular Insulin, % remaining of the original concentration","[1]; 0.2% phenol + […] m-cresol, pH 7.4, NaCl 140 mM",40.6%
same,"Solubility of regular Insulin, % remaining of the original concentration","[1]; 0.2% phenol + […] m-cresol, pH 7.6, NaCl 80 mM",99.2%
same,"Solubility of regular Insulin, % remaining of the original concentration","[1]; 0.2% phenol + […] m-cresol, pH 7.6, NaCl 110 mM",98.5%
same,"Solubility of regular Insulin, % remaining of the original concentration","[1]; 0.2% phenol + […] m-cresol, pH 7.6, NaCl 140 mM",82.2%
same,"Solubility of regular Insulin, % remaining of the original concentration","[1]; […] phenol + […] m-cresol, pH 6.6, NaCl 50 mM",31.2%
same,"Solubility of regular Insulin, % remaining of the original concentration","[1]; […] phenol + […] m-cresol, pH 6.6, NaCl 80 mM",18.6%
same,"Solubility of regular Insulin, % remaining of the original concentration","[1]; […] phenol + […] m-cresol, pH 6.6, NaCl 140 mM",12.9%
same,"Solubility of regular Insulin, % remaining of the original concentration","[1]; […] phenol + […] m-cresol, pH 6.8, NaCl 50 mM",66.6%
same,"Solubility of regular Insulin, % remaining of the original concentration","[1]; […] phenol + […] m-cresol, pH 6.8, NaCl 80 mM",24.9%
same,"Solubility of regular Insulin, % remaining of the original concentration","[1]; […] phenol + […] m-cresol, pH 7.0, NaCl 50 mM",96.7%
same,"Solubility of regular Insulin, % remaining of the original concentration","[1]; […] phenol + […] m-cresol, pH 7.0, NaCl 80 mM",80.8%
same,"Solubility of regular Insulin, % remaining of the original concentration","[1]; […] phenol + […] m-cresol, pH 7.0, NaCl 110 mM",32.9%
same,"Solubility of regular Insulin, % remaining of the original concentration","[1]; […] phenol + […] m-cresol, pH 7.0, NaCl 140 mM",17.1%
same,"Solubility of regular Insulin, % remaining of the original concentration","[1]; […] phenol + […] m-cresol, pH 7.2, NaCl 80 mM",96.4%
same,"Solubility of regular Insulin, % remaining of the original concentration","[1]; […] phenol + […] m-cresol, pH 7.2, NaCl 110 mM",58.7%
same,"Solubility of regular Insulin, % remaining of the original concentration","[1]; […] phenol + […] m-cresol, pH 7.2, NaCl 140 mM",33.1%
same,"Solubility of regular Insulin, % remaining of the original concentration","[1]; […] phenol + […] m-cresol, pH 7.4, NaCl 50 mM",96.7%
same,"Solubility of regular Insulin, % remaining of the original concentration","[1]; […] phenol + […] m-cresol, pH 7.4, NaCl 80 mM",97.3%
same,"Solubility of regular Insulin, % remaining of the original concentration","[1]; […] phenol + […] m-cresol, pH 7.4, NaCl 110 mM",94.2%
same,"Solubility of regular Insulin, % remaining of the original concentration","[1]; […] phenol + […] m-cresol, pH 7.4, NaCl 140 mM",57.9%
same,"Solubility of regular Insulin, % remaining of the original concentration","[1]; […] phenol + […] m-cresol, pH 7.6, NaCl 50 mM",97.2%
same,"Solubility of regular Insulin, % remaining of the original concentration","[1]; […] phenol + […] m-cresol, pH 7.6, NaCl 80 mM",97.1%
same,"Solubility of regular Insulin, % remaining of the original concentration","[1]; […] phenol + […] m-cresol, pH 7.6, NaCl 110 mM",97.1%
same,"Solubility of regular Insulin, % remaining of the original concentration","[1]; […] phenol + […] m-cresol, pH 7.6, NaCl 140 mM",91.7%
same,plasma half-life,[2]; following subcutaneous administration,about 1.5 hours
same,Onset,[2]; in vivo,30 min
same,Peak,[2]; in vivo,1 to 3 h
